The text below walks through data of paper PMC3285296.

Holding throughout (assay): co-IP
The target of assay [1] is Flag-tagged glycogen phosphorylase (GP), wild type (human) (UniProt P06737).
Assay [2] addresses Flag-tagged glycogen phosphorylase K470Q/K796Q (GP^K2Q) (human) (UniProt P06737).
In assay [3] the target is Flag-tagged glycogen phosphorylase (GP), wild type (human) (UniProt P06737). This is another data set of the same source.

Where only a bound is given, the exact number is not on record here.

The molecule “HA-tagged protein phosphatase 1 alpha (HA-PP1α) (from UniProt P62136 1-330) (enzyme)” gave an increase of the co-precipitate with NAM+TSA against untreated cells in assay [1] of over 100%. In assay [2], this molecule showed a PP1α co-immunoprecipitated, against wild type GP of 2 fold.

B1: HA-tagged hepatic glycogen binding subunit GL of PP1 (HA-GL) (natural protein)
chain: MMAVDIEYRYNCMAPSLRQERFAFKISPKPSKPLRPCIQLSSKNEASGMVAPAVQEKKVKKRVSFADNQGLALTMVKVFSEFDDPLDMPFNITELLDNIVSLTTAESESFVLDFSQPSADYLDFRNRLQADHVCLENCVLKDKAIAGTVKVQNLAFEKTVKIRMTFDTWKSYTDFPCQYVKDTYAGSDRDTFSFDISLPEKIQSYERMEFAVYYECNGQTYWDSNRGKNYRIIRAELKSTQGMTKPHSGPDLGISFDQFGSPRCSYGLFPEWPSYLGYEKLGPYY
In assay [3], B1 yielded an increase of the co-precipitate in 25 mM glucose against glucose free medium of 100%.
